Data reported in patent US20200264182A1, “METHOD FOR DETECTING PROSTATE CANCER” (J-OIL MILLS, INC., priority 2017, published 2020).

Legend:
[1] = molecular target: serum fucosylated PSA (prostate specific antigen) (human) (UniProt P07288); assay: sandwich ELISA, anti-PSA antibody capture, biotin-lectin detection, pH 9.6; serum of Prostate cancer 5 (GS 7)
[2] = molecular target: serum fucosylated PSA (prostate specific antigen) (human) (UniProt P07288); assay: sandwich ELISA, anti-PSA antibody capture, biotin-lectin detection, lectin reaction pH 9.6; serum of Healthy 1
[3] = molecular target: serum fucosylated PSA (prostate specific antigen) (human) (UniProt P07288); assay: sandwich ELISA, anti-PSA antibody capture, biotin-lectin detection, pH 9.6; sera of subgroup Negative (GS5 or less), n=2
[4] = molecular target: serum fucosylated PSA (prostate specific antigen) (human) (UniProt P07288); assay: sandwich ELISA, anti-PSA antibody capture, biotin-lectin detection, pH 9.6; subject samples B, subgroup GS6, n=9
[5] = molecular target: serum fucosylated PSA (prostate specific antigen) (human) (UniProt P07288); assay: sandwich ELISA, anti-PSA antibody capture, biotin-lectin detection, pH 9.6; sera of subgroup GS6, n=2
[6] = molecular target: serum fucosylated PSA (prostate specific antigen) (human) (UniProt P07288); assay: sandwich ELISA, anti-PSA antibody capture, biotin-lectin detection, pH 9.6; sera of the prostate cancer patient group (n=9)
[7] = molecular target: serum fucosylated PSA (prostate specific antigen) (human) (UniProt P07288); assay: sandwich ELISA, anti-PSA antibody capture, biotin-lectin detection, pH 9.6; serum of Prostate cancer 7 (GS 8)
[8] = molecular target: serum fucosylated PSA (prostate specific antigen) (human) (UniProt P07288); assay: sandwich ELISA, anti-PSA antibody capture, biotin-lectin detection, pH 9.6; serum of Prostate cancer 1 (GS 4)
[9] = molecular target: serum fucosylated PSA (prostate specific antigen) (human) (UniProt P07288); assay: sandwich ELISA, anti-PSA antibody capture, biotin-lectin detection, pH 9.6; serum of Prostate cancer 9 (GS 8)
[10] = molecular target: serum fucosylated PSA (prostate specific antigen) (human) (UniProt P07288); assay: sandwich ELISA, anti-PSA antibody capture, biotin-lectin detection, pH 9.6; serum of Healthy 5
[11] = molecular target: serum fucosylated PSA (prostate specific antigen) (human) (UniProt P07288); assay: sandwich ELISA, anti-PSA antibody capture, biotin-lectin detection, pH 9.6; serum of Healthy 1
[12] = molecular target: serum fucosylated PSA (prostate specific antigen) (human) (UniProt P07288); assay: sandwich ELISA, anti-PSA antibody capture, biotin-lectin detection, pH 9.6; serum of Healthy 4
[13] = molecular target: serum fucosylated PSA (prostate specific antigen) (human) (UniProt P07288); assay: sandwich ELISA, anti-PSA antibody capture, biotin-lectin detection, pH 9.6; subject samples B, subgroup Negative, n=9
[14] = molecular target: serum fucosylated PSA (prostate specific antigen) (human) (UniProt P07288); assay: sandwich ELISA, anti-PSA antibody capture, biotin-lectin detection, lectin reaction pH 7.4; serum of Healthy 1
[15] = molecular target: serum fucosylated PSA (prostate specific antigen) (human) (UniProt P07288); assay: sandwich ELISA, anti-PSA antibody capture, biotin-lectin detection, lectin reaction pH 7.4; serum of Prostate cancer 4 (GS6)
[16] = molecular target: serum fucosylated PSA (prostate specific antigen) (human) (UniProt P07288); assay: sandwich ELISA, anti-PSA antibody capture, biotin-lectin detection, pH 9.6; serum of Healthy 3
[17] = molecular target: serum fucosylated PSA (prostate specific antigen) (human) (UniProt P07288); assay: sandwich ELISA, anti-PSA antibody capture, biotin-lectin detection, pH 9.6; serum of Prostate cancer 6 (GS 7)
[18] = molecular target: serum fucosylated PSA (prostate specific antigen) (human) (UniProt P07288); assay: sandwich ELISA, anti-PSA antibody capture, biotin-lectin detection, pH 9.6; sera of subgroup GS7, n=2
[19] = molecular target: serum fucosylated PSA (prostate specific antigen) (human) (UniProt P07288); assay: sandwich ELISA, anti-PSA antibody capture, biotin-lectin detection, lectin reaction pH 9.6; serum of Prostate cancer 4 (GS6)
[20] = molecular target: serum fucosylated PSA (prostate specific antigen) (human) (UniProt P07288); assay: sandwich ELISA, anti-PSA antibody capture, biotin-lectin detection, pH 9.6; serum of Prostate cancer 8 (GS 8)
[21] = molecular target: serum fucosylated PSA (prostate specific antigen) (human) (UniProt P07288); assay: sandwich ELISA, anti-PSA antibody capture, biotin-lectin detection, pH 9.6; serum of Healthy 6
[22] = molecular target: serum fucosylated PSA (prostate specific antigen) (human) (UniProt P07288); assay: sandwich ELISA, anti-PSA antibody capture, biotin-lectin detection, pH 9.6; subject samples B, subgroup GS7, n=11
[23] = molecular target: serum fucosylated PSA (prostate specific antigen) (human) (UniProt P07288); assay: sandwich ELISA, anti-PSA antibody capture, biotin-lectin detection, pH 9.6; serum of Prostate cancer 4 (GS 6)
[24] = molecular target: serum fucosylated PSA (prostate specific antigen) (human) (UniProt P07288); assay: sandwich ELISA, anti-PSA antibody capture, biotin-lectin detection, pH 9.6; serum of Prostate cancer 2 (GS 5)
[25] = molecular target: serum fucosylated PSA (prostate specific antigen) (human) (UniProt P07288); assay: sandwich ELISA, anti-PSA antibody capture, biotin-lectin detection, pH 9.6; serum of Healthy 7
[26] = molecular target: serum fucosylated PSA (prostate specific antigen) (human) (UniProt P07288); assay: sandwich ELISA, anti-PSA antibody capture, biotin-lectin detection, pH 9.6; sera of subgroup GS8 or more, n=3
[27] = molecular target: serum fucosylated PSA (prostate specific antigen) (human) (UniProt P07288); assay: sandwich ELISA, anti-PSA antibody capture, biotin-lectin detection, pH 9.6; serum of Healthy 2
[28] = molecular target: serum fucosylated PSA (prostate specific antigen) (human) (UniProt P07288); assay: sandwich ELISA, anti-PSA antibody capture, biotin-lectin detection, pH 9.6; serum of Prostate cancer 3 (GS 6)
[29] = molecular target: serum fucosylated PSA (prostate specific antigen) (human) (UniProt P07288); assay: sandwich ELISA, anti-PSA antibody capture, biotin-lectin detection, pH 9.6; sera of the healthy person group (n=7)
[30] = molecular target: serum fucosylated PSA (prostate specific antigen) (human) (UniProt P07288); assay: sandwich ELISA, anti-PSA antibody capture, biotin-lectin detection, pH 9.6; subject samples B, subgroup GS8-9, n=6

What does the source list for “Pholiota squarrosa lectin (PhoSL), biotin-labeled”?
PhoSL reaction value [1]: 116 U/mL; PhoSL reaction value [2]: 51.9 U/mL; PhoSL reaction value (mean value) [3]: 116 U/mL; PhoSL reaction value (median value) [3]: 116 U/mL; PhoSL reaction value (mean value) [4]: 182 U/mL; PhoSL reaction value (median value) [4]: 189 U/mL; PhoSL reaction value (mean value) [5]: 142 U/mL; PhoSL reaction value (median value) [5]: 142 U/mL; PhoSL reaction value (average value) [6]: 145 U/mL; PhoSL reaction value (median value) [6]: 126 U/mL; PhoSL reaction value [7]: 126 U/mL; PhoSL reaction value [8]: 116 U/mL; PhoSL reaction value [9]: 251 U/mL; PhoSL reaction value [10]: 55.8 U/mL; PhoSL reaction value [11]: 51.9 U/mL; PhoSL reaction value [12]: 74.9 U/mL; PhoSL reaction value (mean value) [13]: 204 U/mL; PhoSL reaction value (median value) [13]: 178 U/mL; PhoSL reaction value [14]: 35.8 U/mL; PhoSL reaction value [15]: 108 U/mL; PhoSL reaction value [16]: 63.9 U/mL; PhoSL reaction value [17]: 168 U/mL; PhoSL reaction value (mean value) [18]: 142 U/mL; PhoSL reaction value (median value) [18]: 142 U/mL; PhoSL reaction value [19]: 179 U/mL; PhoSL reaction value [20]: 130 U/mL; PhoSL reaction value [21]: 39.7 U/mL; PhoSL reaction value (mean value) [22]: 120 U/mL; PhoSL reaction value (median value) [22]: 211 U/mL; PhoSL reaction value [23]: 179 U/mL; PhoSL reaction value [24]: 117 U/mL; PhoSL reaction value [25]: 59 U/mL; PhoSL reaction value (mean value) [26]: 130 U/mL; PhoSL reaction value (median value) [26]: 169 U/mL; PhoSL reaction value [27]: 55.9 U/mL; PhoSL reaction value [28]: 104 U/mL; PhoSL reaction value (average value) [29]: 57.3 U/mL; PhoSL reaction value (median value) [29]: 55.9 U/mL; PhoSL reaction value (mean value) [30]: 233 U/mL; PhoSL reaction value (median value) [30]: 240 U/mL
